The record followed here is patent US20220098635A1.

The Kd is the constant that tells how readily two partners part at equilibrium.

Test [1] addresses RGD peptide (cyclo(Arg-Gly-Asp-D-Phe-Cys)).
The target is the same in test [2]. In words: cell-based or functional assay.
For test [3] the target is unchanged. In words: method not stated.
The target is the same in test [4]. The source holds these as a separate data set.
The target is the same in test [5]. In words: STM junction, bare probe (NA), RGD peptide on substrate only, gap Z0 + 2 nm.
Test [6] has the same target. The source holds these as a separate data set.

Where two headings read alike, the source gives them in different places.

Chain of αVβ3 Integrin (receptor) (P06756 31-992): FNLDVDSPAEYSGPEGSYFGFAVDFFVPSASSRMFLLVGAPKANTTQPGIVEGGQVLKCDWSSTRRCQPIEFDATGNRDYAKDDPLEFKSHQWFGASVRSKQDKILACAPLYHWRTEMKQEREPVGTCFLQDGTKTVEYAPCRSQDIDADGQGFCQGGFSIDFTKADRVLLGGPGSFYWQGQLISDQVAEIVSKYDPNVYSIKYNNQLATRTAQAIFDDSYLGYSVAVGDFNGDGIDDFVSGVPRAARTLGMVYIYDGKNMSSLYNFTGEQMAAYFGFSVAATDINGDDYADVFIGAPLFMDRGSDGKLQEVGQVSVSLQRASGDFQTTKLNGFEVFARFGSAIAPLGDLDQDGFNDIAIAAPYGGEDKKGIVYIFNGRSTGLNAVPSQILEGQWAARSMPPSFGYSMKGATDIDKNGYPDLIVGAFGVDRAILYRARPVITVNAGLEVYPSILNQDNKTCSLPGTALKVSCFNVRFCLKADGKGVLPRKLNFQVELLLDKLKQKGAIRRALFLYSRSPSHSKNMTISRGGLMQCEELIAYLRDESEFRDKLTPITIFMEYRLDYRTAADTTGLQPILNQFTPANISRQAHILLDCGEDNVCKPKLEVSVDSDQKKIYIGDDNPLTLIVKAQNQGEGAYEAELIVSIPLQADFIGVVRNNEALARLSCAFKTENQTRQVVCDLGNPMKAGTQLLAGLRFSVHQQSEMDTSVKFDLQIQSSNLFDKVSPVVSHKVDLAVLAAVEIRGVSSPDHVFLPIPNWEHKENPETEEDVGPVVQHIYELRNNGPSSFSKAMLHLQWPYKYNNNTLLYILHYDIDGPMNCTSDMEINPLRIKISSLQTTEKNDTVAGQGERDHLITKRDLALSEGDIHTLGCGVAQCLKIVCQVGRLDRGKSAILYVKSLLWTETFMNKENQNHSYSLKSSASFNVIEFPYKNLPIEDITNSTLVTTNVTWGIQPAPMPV
Chain of αVβ3 Integrin (receptor) (P05106 27-718, further chain): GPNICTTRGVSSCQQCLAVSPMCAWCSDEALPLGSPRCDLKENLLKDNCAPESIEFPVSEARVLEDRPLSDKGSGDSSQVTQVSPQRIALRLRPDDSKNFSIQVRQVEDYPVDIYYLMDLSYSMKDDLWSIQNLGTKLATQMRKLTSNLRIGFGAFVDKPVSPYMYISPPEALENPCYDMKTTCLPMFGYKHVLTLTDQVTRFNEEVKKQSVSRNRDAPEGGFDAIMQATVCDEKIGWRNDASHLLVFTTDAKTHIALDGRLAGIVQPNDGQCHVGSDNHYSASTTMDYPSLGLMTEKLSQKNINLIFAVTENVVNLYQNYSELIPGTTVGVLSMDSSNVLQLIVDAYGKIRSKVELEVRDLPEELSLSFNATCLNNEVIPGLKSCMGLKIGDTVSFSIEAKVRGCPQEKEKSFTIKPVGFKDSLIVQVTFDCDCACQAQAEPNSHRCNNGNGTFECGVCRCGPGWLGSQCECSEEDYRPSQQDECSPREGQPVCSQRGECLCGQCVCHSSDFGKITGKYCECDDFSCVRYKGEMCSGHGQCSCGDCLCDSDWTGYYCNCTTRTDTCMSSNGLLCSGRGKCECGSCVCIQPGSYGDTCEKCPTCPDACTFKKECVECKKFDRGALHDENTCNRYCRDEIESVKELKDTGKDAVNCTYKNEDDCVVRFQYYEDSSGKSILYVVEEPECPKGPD

On to αVβ3 Integrin (receptor), for which the Frequency with which sweeps yielded an IV curve in test [1] came to 35.9%; in test [4], 10.5%; in test [5] it was 0%; in test [6], 23.7%. Further, the Peak Conductance (nS), Binding Mode NS-S in test [2] came out at 0.38 nS. Besides, in test [3], the Kd turned out to be 10 nM.
